The target in the assay is Twin-Strep-tagged LY6A, C57BL/6J variant (GPI-anchor truncated, soluble) (mouse (C57BL/6J)) (UniProt P05533). Description: ELISA, AAV particles on plate-bound Twin-Strep-tagged LY6A; apparent Kd from a 1:1 fit. For orientation: ELISA stands for enzyme-linked immunosorbent assay.
Twin-Strep-tagged LY6A, C57BL/6J variant (GPI-anchor truncated, soluble) (mouse (C57BL/6J)), sequence (P05533 27-111, change not shown): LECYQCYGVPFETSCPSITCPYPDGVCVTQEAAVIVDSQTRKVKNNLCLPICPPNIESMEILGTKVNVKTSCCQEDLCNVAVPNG

As for “AAV-PHP.B capsid (AAV9 variant with the TLAVPFK insert)”, the Kd was 0.07 nM.

These data come from US20210393713A1.
